Source: US11371056B2, “HPPD variants and methods of use” (BASF Agricultural Solutions Seed US LLC, priority 2017, dated 2022)
Substitutions are numbered along the chain they refer to.

What was measured:
soybean shoots = assay: Soybean transformation, selection of shoots with tembotrione (greening or bleaching); type: in vivo; conditions: wild-type soybean shoots treated with tembotrione
Text: Soybean transformation was achieved by using methods well known in the art, such as the one described using the Agrobacterium tumefaciens mediated transformation soybean half-seed explants using essentially the method described by Paz et al. (2006), Plant cell Rep. 25:206. Transformants were identified by using the HPPD inhibitor herbicide “tembotrione” as selection marker. The appearance of green shoots was observed, and documented as an indicator of tolerance to the HPPD inhibitor herbicide tembotrione.

[1] = tested on: soybean plants (transgenic T0 events, wild-type); assay: Greenhouse spray test of T0 soybean events with Cmpd. 1, leaf area damage score; type: in vivo; set-up: key to leaf area damage score, 25th percentile / leaf area damage score, Interquartile range: damage score 0 (no damage) to 100 (complete bleaching); conditions: for leaf area damage score, 25th percentile / leaf area damage score, 75th percentile / leaf area damage score, 90th percentile / leaf area damage score, Median: T0 soybean events expressing the polypeptide; for leaf area damage score, 25th percentile / leaf area damage score, 75th percentile / leaf area damage score, 90th percentile / leaf area damage score, Median / leaf area damage score, Interquartile range: five days after application of Cmpd. 1 at 300 g AI/ha; for leaf area damage score, 75th percentile / leaf area damage score, 90th percentile / leaf area damage score, Median: scale 0 to 100; for leaf area damage score, Median: 50th percentile; for leaf area damage score, Interquartile range: difference between 75th and 25th percentile, T0 soybean events
Text: Tolerant green shoots were transferred to rooting media or grafted. Rooted plantlets were transferred to the greenhouse after an acclimation period. Plants containing the transgene were then sprayed with HPPD inhibitor herbicides, as for example with mesotrione at a rate of 300-600 g AI/ha, or with Cmpd. 1 (2-chloro-3-(methylsulfanyl)-N-(1-methyl-1H-tetrazol-5-yl)-4-(trifluoromethyl)benzamide) at a rate of 150 g-300 g AI/ha supplemented with ammonium sulfate and methyl ester rapeseed oil. Five to ten days after the application, the symptoms due to the application of the herbicide were evaluated and compared to the symptoms observed on wild-type plants under the same conditions.
For example, T0 soybean plants having a “plant expression cassette”, which includes an HPPD inhibitor tolerant HPPD polypeptide of the present invention, were tested towards the tolerance of Cmpd. 1.
Prior greenhouse trials with the transgenic plants, soybean transformants were routinely analyzed for the expression and presence of the transgenes using the ELISA protein detection method (see detailed description under item D and H). Only plants recovering in the selection media and having a detectable HPPD transgene protein expression were used for the herbicide tolerance analysis. A DeVries Tracker Sprayer was calibrated prior to each spraying. The chemical formulation used for Cmpd. 1 was supplemented with ammonium sulfate and methylated rape seed oil. Spray tests were conducted with a concentration, which equals to 300 grams AI per hectare (300 g AI/ha).
In greenhouse trials, independent T0 soybean events containing an exemplary mutant HPPD polypeptide were sprayed with the HPPD inhibitor herbicide Cmpd. 1 (2-chloro-3-(methylsulfanyl)-N-(1-methyl-1H-tetrazol-5-yl)-4-(trifluoromethyl)benzamide) at the rate of 300 grams AI/ha, supplemented with ammonium sulfate and methyl ester rapeseed oil. Five days after the application, the leaf damaged area due to the HPPD inhibitor herbicide is scored in a scale from 0 (no damage) to 100 (complete bleaching). Under those conditions, the wild-type plants were completely bleached and their damage scores were in the 95-100 range.
Table 5 presents the distribution of the HPPD inhibitor herbicide damage score data as percentile for exemplary mutant HPPD inhibitor herbicide tolerant polypeptides (SEQ ID NOs). The percentiles normalize ranks of the damage score from an individual plant in a population. […] The median is the 50th percentile. Half the values had higher damage scores; half had lower damage scores. The value of the 75th and 90th percentile is the damage score where 75% and 90% of the soybean events had lower damage scores, respectively. The difference between the 75th and 25th percentile is called the interquartile range and a marker to quantify scattering in the population. All constructs had only one single cassette insertion in the soybean genome.

[2] = tested on: Pseudomonas fluorescens HPPD polypeptide (wild-type and mutants); assay: Coupled HPPD activity assay: turnover and residual turnover in crude HPPD polypeptide extracts with and without Cmpd. 1; type: biochemical; conditions: for Turnover: absence of Cmpd. 1; for Turnover / Residual turnover: changes in absorbance (OD) at 320 nm in the coupled assay, 30 min; for Residual turnover: presence of 100 μM Cmpd. 1
[3] = scale 0 (no damage) to 100 (complete bleaching)

CS(=O)(=O)c1ccc(C(=O)C2C(=O)CCCC2=O)c(Cl)c1COCC(F)(F)F [tembotrione, 2-[2-chloro-4-(methylsulfonyl)-3-[(2,2,2,-trifluoroethoxy)methyl]benzoyl]-1,3-cyclohexanedione]
bleaching of shoots (soybean shoots): entirely bleached

CSc1c(C(F)(F)F)ccc(C(=O)Nc2nnnn2C)c1Cl [Cmpd. 1, 2-chloro-3-(methylsulfanyl)-N-(1-methyl-1H-tetrazol-5-yl)-4-(trifluoromethyl)benzamide, reference compound]
damage scores ([1]; wild-type soybean plants, Cmpd. 1 300 g AI/ha, five days after application, scale 0 (no damage) to 100 (complete bleaching)): 95-100
Turnover [2]: 0.236
Residual turnover [2]: 0.042

B1: SEQ ID NO: 2 (protein)
chain: MADLYENPMGLMGFEFIEFASPTPGTLEPIFEIMGFTKVATHRSKNVHLYRQGEINLILNNEPNSIASYFAAEHGPSVCGMAFRVKDSQKAYNRALELGAQPIHIDTGPMELNLPAIKGIGGAPLYLIDRFGEGSSIYDIDFVYLEGVERNPVGAGLKVIDHLTHNVYRGRMVYWANFYEKLFNFREARYFDIKGEYTGLTSKAMSAPDGMIRIPLNEESSKGAGQIEEFLMQFNGEGIQHVAFLTDDLVKTWDALKKIGMRFMTAPPDTYYEMLEGRLPDHGEPVDQLQARGILLDGSSVEGDKRLLLQIFSETLMGPVFFEFIQRKGDDGFGPWNFAQLFESIERDQVRRGVLTAD
modifications: mutant HPPD polypeptide
leaf area damage score, 25th percentile [1, 3]: 15.0
leaf area damage score, 75th percentile [1]: 45.0
leaf area damage score, 90th percentile [1]: 87.0
leaf area damage score, Median [1]: 20.0
leaf area damage score, Interquartile range [1]: 30.0

B2: SEQ ID NO:62: mutant HPPD polypeptide: 213K 215A 264L 268G 270E 315Q 335P 336D 337S 340V 344Q 345M (protein)
chain: MADLYENPMGLMGFEFIEFASPTPGTLEPIFEIMGFTKVATHRSKNVHLYRQGEINLILNNEPNSIASYFAAEHGPSVCGMAFRVKDSQKAYNRALELGAQPIHIDTGPMELNLPAIKGIGGAPLYLIDRFGEGSSIYDIDFVYLEGVERNPVGAGLKVIDHLTHNVYRGRMVYWANFYEKLFNFREARYFDIKGEYTGLTSKAMSAPDGMIKIALNEESSKGAGQIEEFLMQFNGEGIQHVAFLTDDLVKTWDALKKIGMRFLTAPGDEYYEMLEGRLPDHGEPVDQLQARGILLDGSSVEGDKRLLLQIFSEQLMGPVFFEFIQRKGDDGFGPDSFKVLFEQMERDQVRRGVLTAD
modifications: mutant HPPD polypeptide
notes: mutant HPPD polypeptide: 213K 215A 264L 268G 270E 315Q 335P 336D 337S 340V 344Q 345M
leaf area damage score, 25th percentile [1, 3]: 10.0
leaf area damage score, 75th percentile [1]: 25.0
leaf area damage score, 90th percentile [1]: 35.0
leaf area damage score, Median [1]: 15.0
leaf area damage score, Interquartile range [1]: 15.0
turnover and residual turnover, comparison in words ([2]; 100 μM Cmpd. 1, Table 3): increase significantly the turnover and the residual turnover
Residual turnover [%] ([2]; 100 μM Cmpd. 1, normalised to turnover without inhibitor): 79%
Turnover [2]: 0.209
Residual turnover [2]: 0.166

B3: SEQ ID NO: 43 (protein)
chain: B2 chain with A215P, L264M, Q315K, D336H, Q344S
modifications: mutant HPPD polypeptide
leaf area damage score, 25th percentile [1, 3]: 10.0
leaf area damage score, 75th percentile [1]: 25.0
leaf area damage score, 90th percentile [1]: 35.0
leaf area damage score, Median [1]: 10.0
leaf area damage score, Interquartile range [1]: 15.0

B4: SEQ ID NO: 45 (protein)
chain: B2 chain with A215P, L264M, Q315T, D336H, Q344S
modifications: mutant HPPD polypeptide
leaf area damage score, 25th percentile [1, 3]: 10.0
leaf area damage score, 75th percentile [1]: 25.0
leaf area damage score, 90th percentile [1]: 35.0
leaf area damage score, Median [1]: 15.0
leaf area damage score, Interquartile range [1]: 15.0

B5: SEQ ID NO: 23 (protein)
chain: B2 chain with K213R, A215P, L264M, D336H, Q344S, M345I
modifications: mutant HPPD polypeptide
leaf area damage score, 25th percentile [1, 3]: 10
leaf area damage score, 75th percentile [1]: 22.5
leaf area damage score, 90th percentile [1]: 55.0
leaf area damage score, Median [1]: 10
leaf area damage score, Interquartile range [1]: 12.5

B6: SEQ ID NO: 64 (protein)
chain: B2 chain with A215P, D336H, Q344S
modifications: mutant HPPD polypeptide
leaf area damage score, 25th percentile [1, 3]: 5.0
leaf area damage score, 75th percentile [1]: 25.0
leaf area damage score, 90th percentile [1]: 38.0
leaf area damage score, Median [1]: 10.0
leaf area damage score, Interquartile range [1]: 20.0
